{"source": "patent US20230176076", "system": "T1, JUL1 (JULGI) (Arabidopsis thaliana)", "T1 sequence": "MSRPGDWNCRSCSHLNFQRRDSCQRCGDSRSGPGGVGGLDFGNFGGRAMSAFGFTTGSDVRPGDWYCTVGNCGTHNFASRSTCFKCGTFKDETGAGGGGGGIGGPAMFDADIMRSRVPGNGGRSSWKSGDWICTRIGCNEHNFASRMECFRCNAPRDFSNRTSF", "assay": "EMSA", "details": "method inferred from context"}
{"substance": "SMXL5 5'UTR G-quadruplex probe", "values": [{"measurement": "Kd", "setting": "with potassium", "result": 130, "unit": "nM"}, {"measurement": "Kd", "setting": "without potassium", "result": 230, "unit": "nM"}]}
